Data on five molecules can be found in patent US20260242497A1 (VIAL HEALTH TECHNOLOGY, published 2026).

The chains are these.
B1: AB_IL1b_02_003_HL9 (antibody, human IgG4 S228P, kappa, F234A L235A)
heavy: EVQLVESGGGLVQPGGSLRLSCAASGFTFSDHYMSWIRQAPGKGLEWVSYISSSGSTIYYADSVKGRFTISRDNAKNSLYLQMNSLRAEDTAVYYCAREYDSSGYYYVGVDFWGQGTLVTVSSASTKGPSVFPLAPCSRSTSESTAALGCLVKDYFPEPVTVSWNSGALTSGVHTFPAVLQSSGLYSLSSVVTVPSSSLGTKTYTCNVDHKPSNTKVDKRVESKYGPPCPPCPAPEAAGGPSVFLFPPKPKDTLMISRTPEVTCVVVDVSQEDPEVQFNWYVDGVEVHNAKTKPREEQFNSTYRVVSVLTVLHRDWLNGKEYKCKVSNKGLPSSIEKTISKAKGQPREPQVYTLPPSQEEMTKNQVSLTCLVKGFYPSDIAVEWESNGQPENNYKTTPPVLDSDGSFFLYSRLTVDKSRWQEGNVFSCSVLHEALKFHYTQKSLSLSLG
light: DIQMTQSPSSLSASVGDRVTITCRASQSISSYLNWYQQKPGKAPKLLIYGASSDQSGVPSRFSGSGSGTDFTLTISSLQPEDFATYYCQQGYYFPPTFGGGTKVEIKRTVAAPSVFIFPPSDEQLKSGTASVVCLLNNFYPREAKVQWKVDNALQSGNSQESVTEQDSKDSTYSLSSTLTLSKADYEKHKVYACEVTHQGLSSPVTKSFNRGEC
notes: Anti-IL1β antibody with Q311R, M428L, H433K, N434F
B2: AB_TL1A_02_004_HL1 (antibody, human IgG1, kappa)
heavy: QVQLVQSGAEVKKPGASVKVSCKASGYDFTYYGISWVRQAPGQGLEWMGWISPYNGNTHYAQKLQGRVTMTTDTSTRTAYMELRSLRSDDTAVYYCARENYYGSGAYRGGMDVWGQGTTVTVSSASTKGPSVFPLAPSSKSTSGGTAALGCLVKDYFPEPVTVSWNSGALTSGVHTFPAVLQSSGLYSLSSVVTVPSSSLGTQTYICNVNHKPSNTKVDKKVEPKSCDKTHTCPPCPAPEAAGAPSVFLFPPKPKDTLYITREPEVTCVVVDVSHEDPEVKFNWYVDGVEVHNAKTKPREEQYNSTYRVVSVLTVLHQDWLNGKEYKCKVSNKALPAPIEKTISKAKGQPREPQVYTLPPSREEMTKNQVSLTCLVKGFYPSDIAVEWESNGQPENNYKTTPPVLDSDGSFFLYSKLTVDKSRWQQGNVFSCSVMHEALHNHYTQKSLSLSPG
light: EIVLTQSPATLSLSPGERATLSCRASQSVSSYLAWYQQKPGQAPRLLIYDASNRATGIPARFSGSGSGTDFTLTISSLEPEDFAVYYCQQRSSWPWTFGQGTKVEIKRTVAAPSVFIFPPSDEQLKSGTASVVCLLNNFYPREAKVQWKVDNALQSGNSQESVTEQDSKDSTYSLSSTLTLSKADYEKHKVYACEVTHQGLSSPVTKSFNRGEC
B3: AB_IL13_02_001_HL9 (antibody, human IgG1, kappa, L234A L235A)
heavy: EVQLQESGPGLVKPSETLSLTCTVSGFSLNAYSVNWIRQPPGKGLEWLGMIWGDGKIVYNSALKSRLTISKDSSKNQVSLKLSSVTAADTAVYYCAGDGYYPYFMDNWGQGTTVTVSSASTKGPSVFPLAPSSKSTSGGTAALGCLVKDYFPEPVTVSWNSGALTSGVHTFPAVLQSSGLYSLSSVVTVPSSSLGTQTYICNVNHKPSNTKVDKKVEPKSCDKTHTCPPCPAPEAAGGPSVFLFPPKPKDTLMISRTPEVTCVVVDVSHEDPEVKFNWYVDGVEVHNAKTKPREEQYNSTYRVVSVLTVLHRDWLNGKEYKCKVSNKALPAPIEKTISKAKGQPREPQVYTLPPSRDELTKNQVSLTCLVKGFYPSDIAVEWESNGQPENNYKTTPPVLDSDGSFFLYSKLTVDKSRWQQGNVFSCSVLHEALKFHYTQKSLSLSPG
light: DIQLTQSPSSLSASVGDRVTITCRASKSVDSYGNSFMHWYQQKPGKAPKLLIYLASNLESGVPSRFSGSGSGTDFTLTISSLQPEDFATYYCQQNNEDPRTFGGGTKVEIKRTVAAPSVFIFPPSDEQLKSGTASVVCLLNNFYPREAKVQWKVDNALQSGNSQESVTEQDSKDSTYSLSSTLTLSKADYEKHKVYACEVTHQGLSSPVTKSFNRGEC
B4: AB_IL13_02_004_HL9 (antibody, human IgG1, kappa, L234A L235A)
heavy: EVQLQESGPGLVKPSETLSLTCTVSGFSLNAYSVNWIRQPPGKGLEWLGMIWGDGKIVYNSALKSRLTISKDSSKNQVSLKLSSVTAADTAVYYCAGDGYYPYAMDGWGQGTTVTVSSASTKGPSVFPLAPSSKSTSGGTAALGCLVKDYFPEPVTVSWNSGALTSGVHTFPAVLQSSGLYSLSSVVTVPSSSLGTQTYICNVNHKPSNTKVDKKVEPKSCDKTHTCPPCPAPEAAGGPSVFLFPPKPKDTLMISRTPEVTCVVVDVSHEDPEVKFNWYVDGVEVHNAKTKPREEQYNSTYRVVSVLTVLHRDWLNGKEYKCKVSNKALPAPIEKTISKAKGQPREPQVYTLPPSRDELTKNQVSLTCLVKGFYPSDIAVEWESNGQPENNYKTTPPVLDSDGSFFLYSKLTVDKSRWQQGNVFSCSVLHEALKFHYTQKSLSLSPG
light: DIQLTQSPSSLSASVGDRVTITCRASKSVDSYGNSFMHWYQQKPGKAPKLLIYLASNLESGVPSRFSGSGSGTDFTLTISSLQPEDFATYYCQQNNEDPRTFGGGTKVEIKRTVAAPSVFIFPPSDEQLKSGTASVVCLLNNFYPREAKVQWKVDNALQSGNSQESVTEQDSKDSTYSLSSTLTLSKADYEKHKVYACEVTHQGLSSPVTKSFNRGEC
B5: AB_IL13_TSLP_BsAb_ISTF_003 (bispecific antibody)
chain 1: EVQLVQSGAEVKKPGSSVKVSCKASGYTFSNYLIEWVRQAPGQGLEWIGVIDPGVGDTNYNENFKGRATLTADKSTSTAYIELSSLRSEDTAVYYCAREDNPGTAFDYWGQGTTVTVSSASTKGPSVFPLAPSSKSTSGGTAALGCLVKDYFPEPVTVSWNSGALTSGVHTFPAVLQSSGLYSLSSVVTVPSSSLGTQTYICNVNHKPSNTKVDKRVEPKSCDKTHTCPPCPAPEAAGGPSVFLFPPKPKDTLMISRTPEVTCVVVDVSHEDPEVKFNWYVDGVEVHNAKTKPREEQYNSTYRVVSVLTVLHQDWLNGKEYKCKVSNKALPAPIEKTISKAKGQPREPQVYTLPPCREEMTKNQVSLWCLVKGFYPSDIAVEWESNGQPENNYKTTPPVLDSDGSFFLYSKLTVDKSRWQQGNVFSCSVLHEALHSHYTQKSLSLSPGK
chain 2: SIVMTQTPLSLSVTPGQPASISCKASQSVSSDVTWYLQKPGQSPQLLIYYVSEHYTGVPDRFSGSGYGTDFTLKISRVEAEDVGVYYCQQHHRFPLTFGQGTKLEIKRTVAAPSVFIFPPSDEQLKSGTASVVCLLNNFYPREAKVQWKVDNALQSGNSQESVTEQDSKDSTYSLSSTLTLSKADYEKHKVYACEVTHQGLSSPVTKSFNRGEC
chain 3: DIQLTQSPSSLSASVGDRVTITCRASKSVDSYGNSFMHWYQQKPGKAPKLLIYLASNLESGVPSRFSGSGSGTDFTLTISSLQPEDFATYYCQQNNEDPRTFGCGTKVEIKGGGGSGGGGSGGGGSGGGGSEVQLQESGPGLVKPSETLSLTCTVSGFSLNAYSVNWIRQPPGKCLEWLGMIWGDGKIVYNSALKSRLTISKDSSKNQVSLKLSSVTAADTAVYYCAGDGYYPYAMRNWGQGTTVTVSSEPKSSDKTHTCPPCPAPEAAGGPSVFLFPPKPKDTLMISRTPEVTCVVVDVSHEDPEVKFNWYVDGVEVHNAKTKPREEQYNSTYRVVSVLTVLHQDWLNGKEYKCKVSNKALPAPIEKTISKAKGQPREPQVCTLPPSREEMTKNQVSLSCAVKGFYPSDIAVEWESNGQPENNYKTTPPVLDSDGSFFLVSKLTVDKSRWQQGNVFSCSVLHEALHSHYTQKSLSLSPGK

T1 sequence (P55899 24-297 limits assumed, chain 1 of 2): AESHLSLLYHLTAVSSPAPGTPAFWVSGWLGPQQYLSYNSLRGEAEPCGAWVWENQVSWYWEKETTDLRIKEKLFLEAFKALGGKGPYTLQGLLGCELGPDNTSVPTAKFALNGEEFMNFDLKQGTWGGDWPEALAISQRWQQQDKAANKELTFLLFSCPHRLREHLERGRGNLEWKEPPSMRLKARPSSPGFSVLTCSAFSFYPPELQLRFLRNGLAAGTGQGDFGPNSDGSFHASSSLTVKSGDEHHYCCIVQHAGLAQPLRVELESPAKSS
T1 sequence (P61769 21-119 limits assumed, chain 2 of 2): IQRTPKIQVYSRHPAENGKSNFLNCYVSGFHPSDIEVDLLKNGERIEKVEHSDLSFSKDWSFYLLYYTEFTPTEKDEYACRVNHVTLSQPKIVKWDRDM

The assay concerns the target T1, human FcRn (human, UniProt P55899 24-297; P61769 21-119).
T1 construct: also called neonatal Fc receptor
The assay can be described thus: SPR, Biacore 8K, CM5 chip, antibody immobilised, human FcRn as analyte, pH 6.0. For orientation: In SPR one partner is held on a chip, and binding of the other changes the refractive index at the surface.
Experimental: The 1×PBST running buffer was prepared at both pH 6.0 and pH 7.4. Kinetic measurements were obtained for association and dissociation times of 60 and 90 seconds, respectively, at a flow rate of 30 μL/min. The CM5 chips were regenerated with 1×PBS (pH 7.4). Kinetic parameters for the concentration series at both pHs were fit to a steady state affinity model and averaged using the Biacore Evaluation Software. Each concentration series was fit independently to obtain the average rates and binding affinities.
SPR analysis was performed using a Bioacore 8K instrument and a CM5 with the antibody immobilized at 10 g/mL concentration, as above.
As to B1, the “Fold Increase (FI) relative to Rituximab” value turned out to be 50.4 fold and the Kd came to 42.3 nM.

Consider B2, for which the “Fold Increase (FI) relative to Rituximab” value turned out to be 9.8 fold and the Kd came to 218 nM.

Regarding B3, the “Fold Increase (FI) relative to Rituximab” value came to 47.5 fold and the Kd was 44.8 nM.

For the molecule B4, the “Fold Increase (FI) relative to Rituximab” value is 45.9 fold and the Kd was found to be 46.4 nM.

With B5, the “Fold Increase (FI) relative to Rituximab” value stood at 20.7 fold and the Kd was determined as 103 nM.

As usually defined, the Kd is the constant that tells how readily two partners part at equilibrium.
